Source: patent publication US20130344053A1, “Methods of Modifying Insulin Signaling Using Biliverdin Reductase (BVR) and BVR Derived Peptides” (University of Rochester, priority 2010, published 2013)

Tests used:
[1] = system: insulin receptor substrate-1 (IRS-1) peptide Y^608
[2] = system: human epithelial kidney (HEK) cells; assay: Insulin-dependent glucose uptake in HEK cells; type: cell-based; settings: myristoylated peptide 2 h, then insulin 100 nM 10 min
Procedure: (§1) FIGS. 15A-B show the effect of hBVR-based peptides on IGF-dependent glucose uptake in rat smooth muscle cells (PAC1) (FIG. 15A) and insulin-dependent glucose uptake in human epithelial kidney (HEK) cells (FIG. 15B). Cells were treated as described for FIG. 14 and glucose uptake was measured as described infra.
(§2) The therapeutic utility of various BVR peptides with regard to their ability to modify insulin and insulin growth factor (IGF) mediated cellular glucose uptake was evaluated. Human embryonic kidney cells (HEK293) or rat aortic smooth muscle cells (PAC) were starved in low glucose serum-depleted DMEM for twenty hours prior to transfer to PBS containing CaCl2, MgCl2. After two hours, myristoylated peptides were added to the medium for two additional hours. Thereafter, IGF-1 (50 ng/ml) or insulin (100 nM) was added (10 min) and glucose uptake was tested for three minutes in the presence of methyl-D-glucose,3-O-[methyl-3H]. Subsequently, cells were washed three times in cold PBS and solubilized in NaOH (0.05 mM). Aliquots were measured for radioactivity. Non-specific binding or diffusion was tested by addition of 300 mM glucose to the cells. This value was deducted from the total counts (on the average <20%) and results were normalized for protein concentration.

[3] = system: rat smooth muscle cells (PAC1); assay: Glucose uptake in PAC1 cells (IGF-dependent); type: cell-based; settings: myristoylated peptide 2 h, then IGF-1 50 ng/ml 10 min
Procedure: Glucose uptake was tested as described infra. Cells were starved in low glucose serum-depleted DMEM for 20 hours prior to transfer to PBS containing CaCl2, MgCl2. After 2 hrs myristoylated peptides were added to the medium for 2 hours. Thereafter, IGF-1 (50 ng/ml) or insulin (100 nM) was added (10 min) and glucose uptake was tested for 3 min in the presence of methyl-D-glucose,3-O-[methyl-3H]. Subsequently cells were washed 3 times in cold PBS and solubilized in NaOH (0.05 mM). Aliquots were measured for radioactivity. Non-specific binding or diffusion were tested by addition of 300 mM glucose to the cells. This value was deducted from the total counts (on the average <20%) and results were normalized for protein concentration.
as §1, §2

293A cells = assay: Insulin-mediated glucose uptake (2DG) in 293A cells; type: cell-based, human; settings: insulin 15 min, 2DG 15 min, vs controls infected with vector alone, p≦0.05
Procedure: FIG. 12A-D illustrates that “knock-down” BVR and Y^198 detection increased glucose uptake into 293A cells upon insulin induction. As shown in the graph of FIG. 12A, insulin treatment increases BVR activity. 293A cells were treated with insulin (50 nM) and subsequently used at indicated time points for BVR activity measurement. […] Purified BVR was phosphorylated by IRK for the indicated periods. Reactions were terminated by diluting with PBS and freezing at −20° C. BVR activity was determined as in FIG. 12A, and normalized to that of the control (43.8 μmol per min per mg). […] 293A cells were incubated with insulin and after 8 min or 30 min, subjected to immunoprecipitation using anti-human BVR antibodies. The phosphorylated BVR was visualized by immunoblotting using anti-tyrosine antibodies. ECL system was used for visualization of phosphorylated BVR. […]
Glucose uptake was assessed by measuring 2-deoxy 1-[^3H] glucose (2DG) absorption as described by (Braiman et al. (Mol. Endocrinol. 13:2002-12 (1999)), which is hereby incorporated by reference), with minor modifications. […] Radioactivity was measured and data was normalized to protein concentration. Non-specific uptake was determined in the presence of 200 mM of glucose and was subtracted from the total uptake. […]

human BVR = assay: BVR autophosphorylation; type: biochemical; settings: pH 8.4, 30 mM MnCl2, 2 h at 30° C.
Procedure: In FIG. 9A, effect of tyrosine mutations of BVR on its autophosphorylation is shown. Human wtBVR and BVR with mutations in tyrosine were used in the experiment to determine autophosphorylation of BVR. The reactions were performed as described in the Examples. FIG. 9B is a graph showing that BVR tyrosine kinase activity was checked by incubating 5 μg purified BVR with 5 μg Raytide in 50 μl kinase buffer containing 10 μM labeled ATP for 2 h at 30° C. The aliquots of the reaction were transferred onto P81 Whatman filters and radioactivity due to phosphorylation was measured using a scintillation counter.
FIGS. 10A-B illustrate that autophosphorylation of BVR is an Mn^+2 dependant kinase reaction. […] The effects of different metal ions (30 mM MnCl2, 20 mM MgCl2, 20 mM CaCl2, 20 mM Zn acetate) and their combinations were analyzed as indicated in the text. […] Phosphorylation of wtBVR by IRK in the presence of tyrosine kinase inhibitor genestein (200 μM); DMSO was used as the vehicle for genestein and was included in the control reaction mixture. The reactions were carried out in HEPES buffer (pH 8.0) in the presence of 20 mM MgCl2 as described in the Examples.
To detect autophosphorylation of BVR, GST-hBVR of wild type (wt) and mutant variants were incubated in 50 mM HEPES buffer (pH 8.4) in the presence of 30 mM MnCl2 and 1 mM DTT for 2 h at 30° C. The reaction was started with the addition of 10 μM ATP labeled with 10 μCi [γ-^32P]-ATP and was stopped with the addition of Laemmli sample buffer. Samples were boiled for 3 min and applied to a 8% SDS-PAGE gels, transferred to a PVDF membrane, and then visualized by autoradiography. […] The reaction was started with the addition of ATP and terminated by adding 120 μl 10% H3PO4. 100 μl aliquots were directly transferred to P81 Whatman filters which were subsequently washed extensively in 0.75% phosphoric acid at room temperature. Finally, the filters were submerged in acetone for 5 min, dried, and retained counts were measured using a Beckman LS 6500 liquid scintillation counter (Beckman Coulter, Fullerton, Calif.).

[4] = biological target: T1, insulin receptor kinase (IRK) (Homo sapiens, UniProt P06213); assay: BVR phosphorylation by the insulin receptor tyrosine kinase (IRK); type: biochemical; settings: tyrosine point mutant as IRK substrate, 2 h at 30° C.
T1 construct: GST-hBVR fusion protein and the 48 kDa cytoplasmic domain of the β-subunit of IRK; purchased Biomol International (Plymouth, Pa.)
Procedure: FIGS. 7A-B illustrate BVR as a substrate for insulin receptor kinase. […] 10 μg purified wtBVR was incubated in 100 μl kinase assay buffer (pH 8.0) containing 0.1 μg IRK, 10 μM ATP, and 20 μCi [^32P]-ATP at 25° C. up to 4 h. The reaction was terminated by the addition of Laemmli buffer at different points of time as indicated. Samples were separated using 8% SDS-PAGE gel and transferred onto PVDF filter, and phosphorylated protein bands were visualized by autoradiography. […] From left to right lane 1, wtBVR plus IRK in the presence of 50 mM EDTA (pH 8.0); lane 2, wtBVR plus IRK; lane 3, wtBVR in the absence of IRK. The reaction mixtures were subjected to SDS-PAGE electrophoresis and transferred onto a polyvinylidene fluoride (“PVDF”) filter. The blot was immuno-stained with anti-phosphotyrosine antibodies and ECL detection system was used to visualize phosphorylated tyrosines. […] In FIG. 8A the Y^198 residue of BVR is phosphorylated by IRK. Purified wtBVR and Y^198 mutant BVR were incubated with IRK at 30° C. for 2 h. Samples were subjected to SDS-PAGE electrophoresis and processed as described in FIG. 8B. FIG. 8B is a time course of Y^198 mutant BVR phosphorylation by IRK. A purified preparation of human BVR that carried Y^198 mutation was incubated with IRK for up to 3 h as described in FIG. 7A. Samples taken at the indicated time-points were analyzed for detection of phosphorylated proteins as above. […] Subsequently, samples were subjected to SDS-PAGE, stained with Coomassie blue and visualized bands were excised and used for measurement of radioactive content. The experiments were repeated three times. […] The indicated double mutants of BVR were used as substrates for IRK and analysis was carried out as in FIG. 8A. FIGS. 10A-B illustrate that autophosphorylation of BVR is an Mn^+2 dependant kinase reaction. […] The effects of different metal ions (30 mM MnCl2, 20 mM MgCl2, 20 mM CaCl2, 20 mM Zn acetate) and their combinations were analyzed as indicated in the text. […] The reactions were carried out in HEPES buffer (pH 8.0) in the presence of 20 mM MgCl2 as described in the Examples. Phosphorylation of BVR by IRK was examined using GST-hBVR fusion protein and the 48 kDa cytoplasmic domain of the β-subunit of IRK. BVR (5 μg) was incubated in 50 μl of IRK kinase buffer containing 50 mM HEPES (pH 8.0), 20 mM MgCl2, 1 mM DTT in the presence of 0.05 μg IRK and 10 μM ATP labeled with 10 μCi [γ-^32P]-ATP. The reaction was started with the addition of labeled ATP and incubated for 2-4 h. Reactions were terminated by addition of Laemmli sample buffer and boiled for 3 min. Samples were subjected to 8% SDS-PAGE and transferred to PVDF membranes for autoradiography.

T1 sequence (P06213 980-1382 limits assumed): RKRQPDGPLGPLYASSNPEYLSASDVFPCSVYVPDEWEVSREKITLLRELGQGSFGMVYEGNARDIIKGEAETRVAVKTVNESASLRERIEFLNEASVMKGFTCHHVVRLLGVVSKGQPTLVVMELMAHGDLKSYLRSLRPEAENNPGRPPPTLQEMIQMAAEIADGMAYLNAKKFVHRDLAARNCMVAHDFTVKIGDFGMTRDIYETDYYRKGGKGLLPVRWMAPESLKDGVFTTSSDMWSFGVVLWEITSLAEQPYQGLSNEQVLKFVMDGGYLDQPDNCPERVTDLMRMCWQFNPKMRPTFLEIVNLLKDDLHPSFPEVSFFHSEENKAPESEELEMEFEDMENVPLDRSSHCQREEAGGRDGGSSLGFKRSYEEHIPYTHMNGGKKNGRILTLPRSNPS

With “GST-hBVR G17 mutant (GVGRA to GVARA), ATP binding domain mutant” the “IRS phosphorylation by BVR (kinase assay)” value [1] was “G^17 mutation, for the most part, prevented IRS phosphorylation by BVR”.

“KRNRYLSF (Biliverdin reductase derived peptide) [hBVR peptide, amino acids 224-231 of BVR]” was tested, and the “insulin mediated cellular glucose uptake in HEK cells” value [2] was “antagonizing insulin mediated cellular glucose uptake” and the “IGF-mediated cellular glucose uptake in PAC1 cells” value [3] was “inhibit IGF-mediated cellular glucose uptake”.

For “siBVR: human BVR siRNA, target nt96-nt116, expressed from retroviral vector pSuper-Retro-siBVR (chain 1 UCCUCAGCGUUCCUGAACCUG; chain 2 AGGAGUCGCAAGGACUUGGAC)”, the “insulin-mediated glucose uptake by cells” value (293A cells) was “significantly increased insulin-mediated glucose uptake”.

B1: Y^198: human BVR point mutant DQYMK to DQFMK (protein, UniProt P53004 3-296, looked up, variant Y198F)
Biliverdin reductase A: AEPERKFGVVVVGVGRAGSVRMRDLRNPHPSSAFLNLIGFVSRRELGSIDGVQQISLEDALSSQEVEVAYICSESSSHEDYIRQFLNAGKHVLVEYPMTLSLAAAQELWELAEQKGKVLHEEHVELLMEEFAFLKKEVVGKDLLKGSLLFTAGPLEEERFGFPAFSGISRLTWLVSLFGELSLVSATLEERKEDQFMKMTVCLETEKKSPLSWIEEKGPGLKRNRYLSFHFKSGSLENVPNVGVNKNIFLKDQNIFVQKLLGQFSEKELAAEKKRILHCLGLAEEIQKYCCSRK
With B1 the “insulin-mediated glucose uptake by cells” value (293A cells) was “increased significantly”, the “autophosphorylation of BVR (mutants)” value (human BVR) was “did not result in significant changes in autophosphorylation of BVR” and the “reduction of extent of BVR phosphorylation by IRK compared with wtBVR” value [4] was ~70%.
